Experimental data: patent US20260144872A1
“And” between values parts separate entries of the source, which are not always exact repeats. Identical values can stand only once.

Biological target: CD16 (activating FcγRIIIa, CD16a) on NK cells (UniProt P08637)
Test: cell-based or functional assay

Sequence of UniProt P08637 (P08637 17-254 limits assumed): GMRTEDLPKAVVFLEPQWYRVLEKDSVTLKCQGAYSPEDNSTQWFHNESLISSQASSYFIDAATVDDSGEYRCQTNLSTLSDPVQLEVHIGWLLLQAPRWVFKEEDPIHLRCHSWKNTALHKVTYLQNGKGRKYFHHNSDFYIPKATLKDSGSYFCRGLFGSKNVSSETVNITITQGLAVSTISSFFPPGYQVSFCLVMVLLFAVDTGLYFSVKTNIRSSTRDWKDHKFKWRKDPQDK

| CD16 positive % on NK cells after PMA (1 ug/mL, 1 hour), ADAM17 edited cells | CD16 positive % on NK cells after PMA (1 ug/mL, 1 hour), EP controls (ADAM17 intact) [%] | Substance |
| --- | --- | --- |
| 72.4% and 92% | – | a disintegrin and metalloproteinase domain-containing protein 17 (ADAM17) (from UniProt P78536 215-824) |
| – | 0.62 to 6 | a disintegrin and metalloproteinase domain-containing protein 17 (ADAM17) (from UniProt P78536 215-824) (enzyme) |
